The text below walks through data of patent publication US20250177530A1 (UNIVERSITY OF PITTSBURGH OF THE COMMONWEALTH SYSTEM OF …, published 2025).

The target in test [1] is T1, BSA (UniProt P02769 25-607).
T1 construct: Specificity control antigen in ELISA
Kind of test: ELISA on BSA. (In general: An ELISA detects its analyte on a solid surface through an enzyme-linked reagent.)

The target in test [2] is T2, recombinant human ENPP1 extracellular domain fused with a His6-FLAG tag (human).
T2 construct: Expressed in Expi293 cells and purified on nickel resin; It was coated at 50 ng/well in the ELISAs and captured in biotinylated form on streptavidin biosensors in BLItz; also called ENPP1-His; rhENPP1
T2 sequence (P22413 98-925, looked up): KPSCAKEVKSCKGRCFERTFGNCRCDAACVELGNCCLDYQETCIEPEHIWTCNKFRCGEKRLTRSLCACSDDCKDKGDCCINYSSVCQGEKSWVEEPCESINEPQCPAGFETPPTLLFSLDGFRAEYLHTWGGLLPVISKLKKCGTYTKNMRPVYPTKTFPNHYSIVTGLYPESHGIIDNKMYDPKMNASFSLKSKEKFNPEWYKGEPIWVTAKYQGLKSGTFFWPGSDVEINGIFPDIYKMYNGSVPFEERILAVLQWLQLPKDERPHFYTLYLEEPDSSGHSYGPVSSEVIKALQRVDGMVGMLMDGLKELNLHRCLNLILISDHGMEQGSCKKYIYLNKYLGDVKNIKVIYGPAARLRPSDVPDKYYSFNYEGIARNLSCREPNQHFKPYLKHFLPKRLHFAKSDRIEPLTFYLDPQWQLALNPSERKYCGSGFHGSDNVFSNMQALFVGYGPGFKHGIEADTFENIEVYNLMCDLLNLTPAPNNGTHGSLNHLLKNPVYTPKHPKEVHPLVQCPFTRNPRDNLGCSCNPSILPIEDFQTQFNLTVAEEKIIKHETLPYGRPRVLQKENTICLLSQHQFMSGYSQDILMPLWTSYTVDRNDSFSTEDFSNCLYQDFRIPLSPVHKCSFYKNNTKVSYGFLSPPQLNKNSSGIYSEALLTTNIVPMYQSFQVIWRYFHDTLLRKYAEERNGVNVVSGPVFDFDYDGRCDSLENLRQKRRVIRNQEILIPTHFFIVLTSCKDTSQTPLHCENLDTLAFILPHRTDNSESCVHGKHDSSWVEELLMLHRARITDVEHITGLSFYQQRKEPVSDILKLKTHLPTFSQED
Put plainly: ELISA, ENPP1-His coated at 50 ng/well, anti-FLAG-HRP detection. As to the method:
(§1) The binding and specificity of Fab, scFv, and IgG1 to ENPP1 were analyzed by ELISA. Briefly, ENPP1-His protein was coated at 50 ng/well at 4° C. overnight and blocked with 5% milk for 2 hours at room temperature. After three times washing with PBST, they were incubated with 3-fold serially diluted Fab, scFv, or IgG1 for 1 hour at 37° C. For Fab and scFv detection via the FLAG tag present at the C-terminus, further incubation was performed with anti-FLAG M2-peroxidase (HRP) antibody (A8592, Sigma-Aldrich, St. Louis, MO, USA) for another 1 hour. For the IgG1, HRP-conjugated goat anti-human IgG1 Fc (Sigma-Aldrich, St. Louis, MO, USA) was used for detection.

In test [3] the target is T2, recombinant human ENPP1 extracellular …. Put plainly: BLItz biolayer interferometry, biotinylated ENPP1 on streptavidin biosensor. As to the method:
(§2) The affinity and avidity of the anti-hENPP1 antibody were detected by biolayer interferometry BLItz (ForteBio, Menlo Park, CA, USA). Briefly, DPBS was used to establish a baseline for 30 seconds, and streptavidin biosensor (ForteBio) was coated with 16.7 μg/mL recombinant ENPP1-Biotin for 2 minutes. […] Antigen-coated biosensors with PBS served as a reference control. The dissociation was monitored in DPBS for 4 minutes.
On the technique in general: BLI is a label-free optical method that tracks binding on a fibre tip over time.

Test [4] shares this target. Put plainly: BLItz biolayer interferometry, biotinylated ENPP1 on a streptavidin biosensor. The protocol: as §2
The target is the same in test [5]. Kind of test: ELISA, ENPP1-His coated at 50 ng/well, anti-human IgG1 Fc-HRP detection. As to the method:
as §1

Test [6] has the same target. Put plainly: BLItz biolayer interferometry, biotinylated ENPP1 on streptavidin biosensor (avidity, bivalent IgG1). The protocol:
as §2

As usually defined, the EC50 is the concentration needed to bring the measured effect to its halfway point. As a reminder, the koff is the rate constant with which the complex falls apart. What is called kon is the second-order rate constant of association.

T1 sequence (P02769 25-607 limits assumed): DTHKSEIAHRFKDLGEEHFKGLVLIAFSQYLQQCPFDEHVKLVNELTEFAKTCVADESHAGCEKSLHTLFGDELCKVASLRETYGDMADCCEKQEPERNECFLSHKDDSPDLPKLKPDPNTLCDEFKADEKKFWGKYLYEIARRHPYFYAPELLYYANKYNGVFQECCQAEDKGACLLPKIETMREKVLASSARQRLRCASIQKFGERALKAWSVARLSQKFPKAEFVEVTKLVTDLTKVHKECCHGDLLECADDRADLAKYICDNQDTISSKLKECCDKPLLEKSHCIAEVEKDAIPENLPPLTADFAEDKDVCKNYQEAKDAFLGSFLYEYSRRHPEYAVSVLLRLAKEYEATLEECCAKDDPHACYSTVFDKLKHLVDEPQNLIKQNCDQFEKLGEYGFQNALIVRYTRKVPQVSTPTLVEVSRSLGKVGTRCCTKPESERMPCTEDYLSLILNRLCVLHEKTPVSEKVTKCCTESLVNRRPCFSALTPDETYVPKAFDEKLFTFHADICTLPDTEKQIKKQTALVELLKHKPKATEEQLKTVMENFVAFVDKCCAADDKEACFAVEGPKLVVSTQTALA

B1: Fab 17 (Fab, V domains shown)
VH: QVQLVESGGGLVKPGGSLRLSCAASGFTFSDYYMSWIRQAPGKGLEWVSYISSSGSTIYYADSVKGRFTISRDNAKNSLYLQMNSLRAEDTAVYYCAREVYYYDSSGYYTYYFDYWGQGTLVTVSS
VL: DIQMTQSPSSLSASVGDRVTITCRASQSISSYLNWYQQKPGKAPKLLIYAASSLQSGVPSRFSGSGSGTDFTLTISSLQPEDAATYYCQQYDTFPLTFGGGTKVEIKR
notes: Human Fab from a phage library, expressed in E. coli and purified on Ni-NTA; also called 17-Fab; Clone #1 (Fab)
Regarding B1, the binding result in test [1] is recorded as “no binding”. In addition, the EC50 in test [2] was determined as 13.9 nM. In test [3], the Kd worked out at 61.4 nM, the koff turned out to be 0.0044 s⁻¹ and the kon was 72000 M⁻¹ s⁻¹. For the same molecule, in test [4], the koff turned out to be 0.00441 s⁻¹ and the kon is 71800 M⁻¹ s⁻¹.

B2: IgG1 17 (antibody, V domains shown)
VH: QVQLVESGGGLVKPGGSLRLSCAASGFTFSDYYMSWIRQAPGKGLEWVSYISSSGSTIYYADSVKGRFTISRDNAKNSLYLQMNSLRAEDTAVYYCAREVYYYDSSGYYTYYFDYWGQGTLVTVSS
VL: DIQMTQSPSSLSASVGDRVTITCRASQSISSYLNWYQQKPGKAPKLLIYAASSLQSGVPSRFSGSGSGTDFTLTISSLQPEDAATYYCQQYDTFPLTFGGGTKVEIKR
notes: also called hIgG1 17; IgG 17
In the case of B2, the EC50 in test [5] stood at 0.14 nM. Besides, in test [6], the Kd is 6.7 nM, the koff came to 0.0042 s⁻¹ and the kon is 630000 M⁻¹ s⁻¹.

B3: IgG1 3G12 (antibody, V domains shown)
VH: QVQLVESGGGLVKPGGSLRLSCAASGFTFSDYYMSWIRQAPGKGLEWVSYISSSGSTIYYADSVKGRFTISRDNAKNSLYLQMNSLRAEDTAVYYCAREVYYYDSSGYYTYYFDYWGQGTLVTVSS
VL: DIQMTQSPSSLSASVGDRVTITCRASQSISSYLNWYQQKPGKAPKLLIYAASSLQSGVPSRFSGSGSGTDFTLTISSLQPEDVAVYYCQQYYTSRITFGQGTKLEIKR
notes: Bivalent human IgG1 converted from Fab 3G12, expressed in Expi293 cells and purified on Protein A; also called hIgG1 3G12
Regarding B3, the EC50 in test [5] amounted to 0.24 nM. For the same molecule, the kon in test [4] was determined as 516000 M⁻¹ s⁻¹. Besides, in test [6], the Kd worked out at 4.2 nM, the koff worked out at 0.0021 s⁻¹ and the kon worked out at 520000 M⁻¹ s⁻¹.

B4: Fab 3G12 (Fab, V domains shown)
VH: QVQLVESGGGLVKPGGSLRLSCAASGFTFSDYYMSWIRQAPGKGLEWVSYISSSGSTIYYADSVKGRFTISRDNAKNSLYLQMNSLRAEDTAVYYCAREVYYYDSSGYYTYYFDYWGQGTLVTVSS
VL: DIQMTQSPSSLSASVGDRVTITCRASQSISSYLNWYQQKPGKAPKLLIYAASSLQSGVPSRFSGSGSGTDFTLTISSLQPEDVAVYYCQQYYTSRITFGQGTKLEIKR
notes: Same heavy chain as Fab 17, different light chain; Expressed in E. coli and purified on Ni-NTA; also called 3G12-Fab; Clone #2 (Fab)
With B4, in test [1], the binding result was “no binding”. For the same molecule, in test [2], the EC50 worked out at 2.6 nM. Also, in test [3], the Kd was 35.5 nM, the koff turned out to be 0.0018 s⁻¹ and the kon was determined as 52000 M⁻¹ s⁻¹. In test [4], the koff turned out to be 0.00184 s⁻¹ and the kon was 51900 M⁻¹ s⁻¹.

B5: scFv 17 (scFv)
scFv: DIQMTQSPSSLSASVGDRVTITCRASQSISSYLNWYQQKPGKAPKLLIYAASSLQSGVPSRFSGSGSGTDFTLTISSLQPEDAATYYCQQYDTFPLTFGGGTKVEIKGGGGSGGGGSGGGGSQVQLVESGGGLVKPGGSLRLSCAASGFTFSDYYMSWIRQAPGKGLEWVSYISSSGSTIYYADSVKGRFTISRDNAKNSLYLQMNSLRAEDTAVYYCAREVYYYDSSGYYTYYFDYWGQGTLVTVSS
notes: VL-(G4S)3-VH orientation; Expressed in E. coli; also called scFv format antibody 17; not shown: C-terminal FLAG tag used for detection; The protein was purified on Ni-NTA
As to B5, the EC50 in test [2] was found to be 6.4 nM.

B6: scFv 3G12 (scFv)
scFv: DIQMTQSPSSLSASVGDRVTITCRASQSISSYLNWYQQKPGKAPKLLIYAASSLQSGVPSRFSGSGSGTDFTLTISSLQPEDVAVYYCQQYYTSRITFGQGTKLEIKGGGGSGGGGSGGGGSQVQLVESGGGLVKPGGSLRLSCAASGFTFSDYYMSWIRQAPGKGLEWVSYISSSGSTIYYADSVKGRFTISRDNAKNSLYLQMNSLRAEDTAVYYCAREVYYYDSSGYYTYYFDYWGQGTLVTVSS
notes: VL-(G4S)3-VH orientation; Expressed in E. coli; also called scFv format antibody 3G12; not shown: C-terminal FLAG tag used for detection; The protein was purified on Ni-NTA
As to B6, the EC50 in test [2] came out at 52.2 nM.
